The values that follow come from paper PMC11381810.

For assay [1], the target named is syntaxin-1A (1–265) S225C, endogenous cysteines replaced by serine (Rattus norvegicus) (UniProt P32851). Nature of the assay: FRET or BRET; stopped-flow; Alexa Fluor 488 (donor) and Alexa Fluor 647 (acceptor) on syntaxin and SNAP25; one partner fixed at 0.125 μM and the other titrated, or equimolar; 37 °C; 20 mM Hepes, 150 mM KCl, 0.1 mM TCEP, pH ~7.4. (In general: In BRET a luciferase serves as donor, and the signal depends on an acceptor being close.)

Assay [2] deals with 2:1 syntaxin:SNAP25 complex (premixed syntaxin-1A (1–265) S225C and SNAP25a (1–206) M49C) (Rattus norvegicus) (UniProt P32851). In words: FRET or BRET; stopped-flow; donor-labelled syntaxin and acceptor-labelled SNAP25 at 1:1, unlabeled synaptobrevin titrated in excess; syntaxin and SNAP25 premixed, or SNAP25 and synaptobrevin added together to syntaxin; 37 °C.
Assay [3] deals with SNAP25a (1–206) M49C, endogenous cysteines replaced by serine (Rattus norvegicus) (UniProt P60881). In words: FRET or BRET + SEC; equimolar stopped-flow titration at 37 °C (kobs^2 hyperbolic) and size-exclusion chromatography of the 1:1 mix after overnight incubation at 4 °C (excess of free SNAP25).
For assay [4] the target is unchanged. Nature of the assay: FRET or BRET; stopped-flow; Alexa Fluor 488 (donor) and Alexa Fluor 647 (acceptor) on syntaxin and SNAP25; one partner fixed at 0.125 μM and the other titrated, or equimolar; 37 °C; 20 mM Hepes, 150 mM KCl, 0.1 mM TCEP, pH ~7.4.

Consider “SNAP25a (1–206) M49C, endogenous cysteines replaced by serine (from UniProt P60881-2 1-206) (natural protein)”, for which, in assay [1], the intercept of kobs over [SNAP25]0 was 0.019.
On to “synaptobrevin 2 (1–96) S61C (from UniProt P63045 1-96) (domain or fragment)”, for which the rate constant of the irreversible step (first, exponential phase) in assay [2] stood at 7520 M⁻¹ s⁻¹.
“syntaxin-1A (1–265) S225C, endogenous cysteines replaced by serine (from UniProt P32851 1-265) (domain or fragment)”: in assay [3], the stoichiometry N (syntaxin per SNAP25) came to 2. The substance further showed an intercept of kobs over [syntaxin]0 in assay [4] of 0.0032.
